From the NTF2 design screens of Basanta et al. (2020)

assay: protease stability score; higher = more stable; yeast display proteolysis, trypsin and chymotrypsin;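 also: log10 excess protease needed over predicted unfolded state with 0 meaning unfolded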

Sequence | protease stability score
DQDAARIYKHQVEAIKTGNPSKVMELADPNVEFHVGDRVITGREQLRNDVDRHKKQMRVEIRIEDITDQGEFANIRANVTIDVNGRPKTSRVNMRVFAHNGKVKSQDFQTSQ | 0.52
DQDAIRRLDEALRAEETGNEKQLKDLFDPNVEFVIGDDEYHGMDSYAKDVRRRKQNMRDHIEHVDMHDNGSQIHIRYRQVANINGTPVKYEITATAEVHNGRFKRMEYRIDEDEQRKLDS | 0.026
DQDALRKWEEILKAMETGDREKVAQLVDPNARVVYGDKEVRGRESIRKRVKEIRDELRFSMELKRFDDHNGRASATLKMNAEHNGQPIHRTASVEIEVQNGRIKSMEIQLRG | 0.062
DQDAQRQLREAMKDEESGDHRSIRENIDPNAKLDVGDKDVTGRENVAKEIKHQVDESRVKIDHYRMEVHGDRVTVTFNAVETHNGQPRRKTYQVIFKIHNGQFKKIMMRTSQ | 0.546
DQDEIRQNARDLATGDPDRAREQADKHVRVEIGEKTLHGREKLEEWMKHIHERIDHNRVHDIQIDNGRVEASVNVDINGKKVVFTIVAEFDNGKIQRVQVDVRDHEVQKVMEEIDS | 0.821
DQDEQRHQMEEVRKAFQRGDNEKFERLADPNVRYQVGDKTYHGREQASKALSDIREQVDHLEIKDYKIHGNKLDINVVVDINGEKHEYRIIVHIHNGRITRYQFQST | 0.73
DQDHEQKMMTRVAHAFDNGDDQSLARLMDPNVSVTVGDKSVHGRERVRELVNEWRHRVDHIKLDRVEHQGNKAKFHITVEHNGERDQVDLEIEARNGKVKNVVLHRP | 1.26
DQDHLRELVHTFNRLLEQGNFDELANMFDKNARVDVGDKSYHGQEQVRTWFKHLRQRVDHFHVKHYKVRGDEATIHVIMDVNGQKRNVTVRLSFSNGRADHIQIDPDHKQELDK | 1.56
DQDLHTRFKTWVENLHEGDEDNLKSLADPNAKIKVGNKEYHGMDEFKKDQKRRRDQMRIQIEIDSVTVQGNKATAEFEMTLDVNGKPVRMRFRVQFEVHNGTIQSWEAQVSPEQQEKLDR | 0.967
DQDQMRKAEQAMRAEQKNNKEELDELFDPNVEVEVGDFNVEGREEMNKEVDDLKKQARFHWSLHHVEVRGNRMHFKLRFEIQVNGQPRKNTANVEIEAHNGKFTSKTNRIDPRFVKTLLG | 0.55
DQDRLEEVRRRMTTGNPDDLRNLMDEDVTVQYGDKEVHGRDEAVDRLEKLLRQVDHLRIDSMDAHGDEFNVHLSAVVNGRQVNFVVSLRIHNGKIKHFMQQATDEDQQKRLEHAWD | 1.23
DQEAAEILKRFVKAIKTGDPDEAKEQMDKDVKVRVGDKVIHGREEVAKEVEQTNRNLRLEVEINDYTVDGDKVTIRMRIVTNENGRPDVKTVKVTAHAHNGRLVHLEIQSDS | 0.778
DQEAAQDMRQWINAWNQNNPRKLRKLVDENARINIGEWHLQGRERIHKFAEKLIHEMDVQFSIKSFHVQGNKIKANLRIVANINGRPHEVNANLVVIVHNGHIKEIKATLDEDQIRHLNS | 0.648
DQEAHRVFNEFIKAITTGNPDRARQLADPNARFQVGDKRYHGMERYASTLKQQQNKMTQSLRVRDVDVKGDKIKVDAQSEMNHNGQPRRSQHNIDVNIQGDKIKRVRYTDDK | -0.454
DQEDKDSLEQILHTGDWVDAAKSADPNAQAEVGDKTWTGREQVEKVMKRLRDDIDHQEVKSVEIDGDKMHVDLTAHINGERMRITIEVKYSNGHLVKVVVKATDKEVEKHLKKLLD | 1.54
DQEDLKHLANVLRTGDWDRLRDLFDENARVKIGDKEVHGKEDAKKLAEQLKRSIDHMKISTWSITNGVLEMHFRVNVNGKTYEVQMELHAHNGRIKSMELHYRNREVKHVIKEMLD | 1.08
DQEDLRRIAEQVNRAFEKNDHDLMRRLADKDVKFHVGEKELTGRDNLARFLQEFRRRADHITVKSFDASNGRVNADIEIDVNGQKIKLHMQAEVHNGHIKHVRFHYTDEQQLRDFLS | 1.24
DQEDQQRLAEQFMRALDEGDSDTIAKLLDPNARVIVGDKTVHGHRHARRVIHEFRNRVDRVDVRTVEVDNGHVRIEAVLNFNGQRTRFVYHLKIDNGRFKEMQLRSK | 0.892
DQEEAEKVMKQWMEAVQKGDEDTVRKLYDPNVEWINADTKEQDVEQFRKAIKKAKDKGVEFQVRKAKVEGDRVQMHYDVRIGNETVTFTVEMDVQGGKVEWLRVKVDEKARKALTKG | 1.22
DQEEAERVVKRAIKALENGNSKELKDLGKEGVEYEFGDKKIHGPDALVKQFRTLQKKGVEMEFKEHHVEGDEAHTKVRYRNGDKENEATITATVKGGRIDRVQVNVPETIRKIVKHG | -0.076
DQEEAKEVAEKVMKAVENGDEKKLKDLIDEGVKYEVGDTQQHGPEVAVKVVQYLQKKGVRLEFKEVQHHGNQVHTKIEYQNGDETDTVEATAEVKGGKIDQVQIHASETVVKWIKHG | 0.088
DQEEAKKIVDKMLKAVENGNEEDLVKMGADGVEYRAGDKKAHGPEAIQEVVQYLKRKGVEVEVKEVQVKGDKAQTHVDYKVGNETMTATANATLKGGKIDRVEIDFDETLKKVIKDG | 0.154
DQEEAKKVAEQAIKYVENGNLTELMDMLKDGGEYQVADDKKHGKEVLYKLVKILQRLGVEVEFKRTEIEGNTVTTDVDYRLGDEEATAQAHAEVQGGRIDRVQIDADEHLKKWIKHG | 0.606
DQEENQKIAERIVKIIQTGDNEKAMKQVDKNVRIRVGEKEYHGRESAREHIREQKEQFDHATVDDMKVQGNKIVLKMRLDVNGVDMDVVIKVTVKNGTIKELHVEYRDREDQQKIES | 1.09
DQEEVEQAKKFVEAQKSGDPDQLNDLADPNVELEIGDQELHGREDLHDWANHQNKHMRMEVRDVKAQDKPNHVEVHIRFVINVNGKPRDTTVEVDFSAENGHIKKIKFQIDHHELRKLEK | -0.154

Sequence | protease stability score
DQEEVRRVVEKVAKAVQNGDATRLRDMGKDGVKYRRVEEETHGPEAVEKVLKYLRKQGVKLQVKHVEVEGNTAQTEVDYRRGDETLTVHAKAKVQGGRIDEVQVDLDEKAKKYVDHG | 0.138
DQEHVKRRADTAMKAIQNGDPDEAVKQMDPDAKMRVGDHEITGREDVRRYVETLHRRVDHNHILSLTHHGETVVFNAVVKVNGRNVTVNWVLKFHNGRLKQVDINPDEEKRFQS | 0.079
DQEHYEKIAKHMSDVLRTGNPDDMLRMIDPNARLEVGDKRWNGRHKIKKFLETFVKSADHVKVRHVEVSGNDITLDVVAHVNGRSVKFNVHANVHNGRIKEVKFDPRAWRDLQT | 0.505
DQEKFERMAHKANRALEQNDEETFDELADENARMIYGDKRYTGRERVREAVQEIDKRVDHVQVDRVNVHGERAQINAVFHFNGKTQRDNVNMRFSNGKLQEMRFDPDVIRNLEE | -0.131
DQEKKATRFARKLIHDIRTNDEEHLVDLADPNVKVQYGDKSYHGREQFKKWWKDLMDQADHVDVKVRDLKVDGNKFVLVYSYVMNHNGQKREVEMNVSAKDKNGRINIQSIQMG | 0.301
DQEKLETLARQVFDAFREGDEETFRRLADPNVTAVYGDQKYRGRERVAKWLKDLANQIDHLQLNDVTIQGEKMHFDATVRINGKNRKLVMIVEAENGTLKRVVLSHG | 0.166
DQEKLQSYVKQYETNDESKLKKNMDENARVDIGDRRITGMEKAADILRHFMEQADHVKLDRMEVQGNHATVDVTAVVNGQKLDYKFVIHVHNGKVKRVEWRVTSEENQKTYDKIVG | 0.537
DQEKNNHDAKKWVKNLRTGNEDELQRLFDEDARFNYGDKTVTGREQLQEWAHRMQRRIDSVDVRSVSQHGDKMNIDVVVRVDGRDRRFIFRAEIHNGRIKNAWMEDT | 0.497
DQELRDQVERLLHLEKHGDNDEVLRQFDPNAKAQVGDTRYHGMTTAVRDMVRQQNEARFSFEIHHVSVSGDRVVIDAVYVKDHNGKPSTRRVHIQMHFRNGKVQERRQNDDG | 0.782
DQENLDVLRRLWEALESGNPDKYSQLIDPNAEVVVGDKTYEGKENLKQEIRTERDEMRKEIDWKSMSVHNGQANAEAKIRSNHNGDPREMVVTARARFHNGKLQNYEQHVDK | -0.325
DQENLELMNRLLEAISSNDESKFRRLVDPNVRVVIGDEQYHGRETLQKLLRDHNEHSRNDEHIHRVELHNGRVNMDVTREVDHNGRPQTDKFEIVATANNGKAVRMRFERTS | -0.164
DQEQAEETQKKWQEVVEKGDEKKAKKIYDPNGQWQDADETHQGYEIVIKMMRRAQKKGIEFQVRRAEVEGDRLQVDYDMRLGDKTVTFTVQMEVQGGHVKVVRVEVTEEAKKLLKEG | 1.11
DQEREMQEWYEKLVRNYENNDRDRLNELLDPNAQFNVGDQTFHGRENAKKWLKTMVDKVDSVEFDLRRLHVHGNKVVFHANVRYRVNGTDTTVDVVIVARVDNGRLRVEKVEYG | 1.28
DQERNEQAKKLLDIINTGDEHKVKDMFDPNASIKVGDHTLHGREEIAKHYRREKDESRYQVDRVDFKAHGEKVRVSVKYTFRHNGKPLTATVEYNFRMHNGRIKDLSVRFDEQRQRDRDS | 0.117
DQEVAETMMERWQKAVQKGDPKEVQEVYDPNVTWKDVDEEHQGKEQVVKQMRKVQKQGIEFQIRRAEVEGDRAQAVYDVKLGNLTVTFTVEMTVRGGRVQEVRVEMDEEAKKLVKKG | 0.136
DQEVREYIKRVYSTGDPDELNKLIDKDVRMRVGDKEVEGRETVQTIMRDWMTRVDDIKVHSYDVRGNKANYDAQYVFDGRSARFVIHIEFHNGRVKHVVVEATNEEVKQLLRDMLS | 1.33
DQHAKRLFDEVVSAIKDGDPHQVKKQLDKNVRARVGDKTISGRETFAQQRKTERDEIEWDVEDYKADVNGDHIKVDMKVKSEHNGRPTSDKIDVDVQWHNGHVVRMEFKETR | -0.392
DQHDAERMNRVFEQNNEEELHQLMDPNVEVTVGNKRVKGRERAKKLFKRLVTNIDHVSYRSVNDDGDKLELKFVAVINGQTYHLKIEVTLHNGKVKSIHLDARDEKLKHLLDEWLH | 1.39
DQHEQQKLAENVQKVLRKGDESRFQRLVDPNAKMTYGDKSLTGHERFRKWMQEFRHHADHVEFKEVSIHNGKLNMHAVIDVNGHKQTFVMHFQFHNGTVQHVEQTQT | 0.289
DQHLEDVARQMQEVEKHNDPEEVSKQFDPNAHARYGDKEVHGHHQFKEQAKRRQTKAQFKVDKYSVSVDNGRVSMSRQYVNDHNGKPRTQTDTAHMEVHDGRITDVKYQSTS | -0.139
DQHVEDVARKFINAMQTGDPDRLKELFDPNARQQVGDTVVTGREHAAKKWKEWVDEMEVHVQLRSIDVRGDKATLRFKLEVRVNGKPSQQDVTMVIHMHNGRAVDVKLSIDERDKKEIDS | 1.42
DQKDAKRATEILKNLQEGDWSEVVRQADPNAEIKVGDKVYNGMEHYAEHMHRKVEHSRIRIEVETVKDHNGVIHIKFHIEYKVNGHPRSNTQNINFYLNNGKVRSIDVQVPEEDLEKEHK | 0.252
DQKKLKEQIKELWDALRTGDPQRAADLADPNARIQVGDKEITGREKFREHVKENKERIDRFTINDFKVQGDKARVDFHYEVNGQHRRVDATIVMRNGHIVSAQFDSQ | 0.717
DQKKQQEVLEQWSKNDPRDLRKQADKDVRVQIGDTTYHGREDAQDALYTLAKRVDHFKYQHIETEGDHIRVDLVVNVNGREYQLTFEAQFHNGRLKTLEMQVRDEDQHKRLQEQLD | -0.22
DQKVNEFFKHVVKVEENGDTDKYRDNFDKDARAVYGDKRVTGNDELADTMRRTRHDMKYDVRSMDVQVRNGRVTVDVKVDVRVDGKPHSLKETIEMEVDNGKVKEVRVDFDPDQRRKVER | -0.188
